Measured values from US20240083959A1 (INSTITUTE FOR BASIC SCIENCE, published 2024).

T1: recombinant Lectin-Olfactomedin-like domains of human LPHN1 (human, UniProt O94910 25-398, limits assumed)
T1 construct: domain: Lectin-Olfactomedin-like domains; also called Lec/Olf domains of LPHN1; Lec-Olf domains of LPHN1
T1 sequence (looked up): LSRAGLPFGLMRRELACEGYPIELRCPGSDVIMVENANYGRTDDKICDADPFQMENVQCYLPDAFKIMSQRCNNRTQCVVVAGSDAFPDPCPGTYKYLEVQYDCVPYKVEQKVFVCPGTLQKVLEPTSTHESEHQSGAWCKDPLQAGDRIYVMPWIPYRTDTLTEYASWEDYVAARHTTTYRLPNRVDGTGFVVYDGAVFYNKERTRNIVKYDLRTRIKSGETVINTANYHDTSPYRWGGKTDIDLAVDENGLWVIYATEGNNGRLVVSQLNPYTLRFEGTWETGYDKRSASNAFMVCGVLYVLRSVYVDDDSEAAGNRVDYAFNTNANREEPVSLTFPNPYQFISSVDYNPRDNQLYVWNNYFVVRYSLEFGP

T2: recombinant Lectin-Olfactomedin-like domains of human LPHN3 (human, UniProt Q9HAR2 20-393, limits assumed)
T2 construct: domain: Lectin-Olfactomedin-like domains; also called Lec/Olf domains of LPHN3; Lec-Olf domains of LPHN3
T2 sequence (looked up): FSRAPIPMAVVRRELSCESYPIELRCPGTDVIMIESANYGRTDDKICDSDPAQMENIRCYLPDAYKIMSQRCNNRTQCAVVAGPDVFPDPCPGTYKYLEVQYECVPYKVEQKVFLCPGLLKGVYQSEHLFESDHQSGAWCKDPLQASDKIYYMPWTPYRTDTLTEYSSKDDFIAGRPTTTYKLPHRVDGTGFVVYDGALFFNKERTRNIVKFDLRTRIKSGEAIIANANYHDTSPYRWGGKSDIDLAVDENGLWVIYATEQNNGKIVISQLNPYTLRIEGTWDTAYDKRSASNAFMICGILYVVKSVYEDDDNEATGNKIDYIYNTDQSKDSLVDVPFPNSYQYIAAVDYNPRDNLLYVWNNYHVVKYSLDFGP

T3: recombinant human LPHN2 lectin-olfactomedin-like domain, residues F26-P394 (human, UniProt O95490 26-394)
T3 construct: range 26-394; Coated on the plate at 100 nM; also called LPHN2 Lec/Olf domains; Lec-Olf domain
T3 sequence (looked up): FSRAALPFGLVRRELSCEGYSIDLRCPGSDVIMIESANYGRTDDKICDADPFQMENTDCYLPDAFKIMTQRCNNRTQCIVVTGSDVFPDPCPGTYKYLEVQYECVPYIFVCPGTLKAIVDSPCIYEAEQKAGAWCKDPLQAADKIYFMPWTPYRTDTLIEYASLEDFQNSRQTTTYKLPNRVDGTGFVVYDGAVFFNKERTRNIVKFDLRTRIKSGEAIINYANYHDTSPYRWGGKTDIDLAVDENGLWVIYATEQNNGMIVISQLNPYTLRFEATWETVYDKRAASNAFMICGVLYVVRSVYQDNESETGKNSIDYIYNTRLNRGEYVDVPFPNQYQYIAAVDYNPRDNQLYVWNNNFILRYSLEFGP

B1: recombinant human LRG1 (leucine-rich alpha-2 glycoprotein 1), residues V36-Q347, untagged, glycosylated (ligand)
chain: VTLSPKDCQVFRSDHGSSISCQPPAEIPGYLPADTVHLAVEFFNLTHLPANLLQGASKLQELHLSSNGLESLSPEFLRPVPQLRVLDLTRNALTGLPPGLFQASATLDTLVLKENQLEVLEVSWLHGLKALGHLDLSGNRLRKLPPGLLANFTLLRTLDLGENQLETLPPDLLRGPLQLERLHLEGNKLQVLGKDLLLPQPDLRYLFLNGNKLARVAAGAFQGLRQLDMLDLSNNSLASVPEGLWASLGQPNWDMRDGFDISGNPWICDQNLSDLYRWLQAQKDKMFSQNDTRCAGPEAVKGQTLLAVAKSQ
modifications: glycosyl groups at T37 (O-linked), N79, N186, N269 and N325 (N-linked), numbered on SEQ ID NO: 1
notes: also called wild-type LRG1; wild LRG1
B2: deglycosylated LRG1 (LRG1 treated with PNGase F) (ligand)
chain: VTLSPKDCQVFRSDHGSSISCQPPAEIPGYLPADTVHLAVEFFNLTHLPANLLQGASKLQELHLSSNGLESLSPEFLRPVPQLRVLDLTRNALTGLPPGLFQASATLDTLVLKENQLEVLEVSWLHGLKALGHLDLSGNRLRKLPPGLLANFTLLRTLDLGENQLETLPPDLLRGPLQLERLHLEGNKLQVLGKDLLLPQPDLRYLFLNGNKLARVAAGAFQGLRQLDMLDLSNNSLASVPEGLWASLGQPNWDMRDGFDISGNPWICDQNLSDLYRWLQAQKDKMFSQNDTRCAGPEAVKGQTLLAVAKSQ
modifications: N-linked glycans removed with PNGase F (sites N79, N186, N269, N325 on SEQ ID NO: 1)
notes: For FACS it was conjugated with Alexa 647; also called DG-LRG1; deglycosylated form
B3: recombinant human LPHN2 olfactomedin-like domain, residues V135-P394 (receptor, UniProt O95490 135-394, looked up)
chain: VCPGTLKAIVDSPCIYEAEQKAGAWCKDPLQAADKIYFMPWTPYRTDTLIEYASLEDFQNSRQTTTYKLPNRVDGTGFVVYDGAVFFNKERTRNIVKFDLRTRIKSGEAIINYANYHDTSPYRWGGKTDIDLAVDENGLWVIYATEQNNGMIVISQLNPYTLRFEATWETVYDKRAASNAFMICGVLYVVRSVYQDNESETGKNSIDYIYNTRLNRGEYVDVPFPNQYQYIAAVDYNPRDNQLYVWNNNFILRYSLEFGP
notes: range 135-394; Expressed with an Fc tag and released untagged with thrombin; also called Olf domain of LPHN2

Key:
[1] = target: T1, recombinant Lectin-Olfactomedin-like …; assay: solid-phase binding assay (ELISA), plate coated with 100 nM Lec-Olf domain
Description: (§1) FIG. 8E: results of solid phase binding assay to evaluate binding of wild-type LRG1 and DG-LRG1 to the Lec-Olf domains of LPHN1 and LPHN3. The plates were coated with Lec-Olf domains (100 nM) of LPHN1 and LPHN3. After washing and blocking, different amounts (0.001, 0.005, 0.01, 0.05, 0.1, 0.5, 1, 5 and 10 μM) of wild-type LRG1 or DG-LRG1 were added and LRG1 or DG-LRG1 bound to coated proteins were detected by ELISA using anti-LRG1 antibody and anti-mouse secondary antibody.

[2] = target: T2, recombinant Lectin-Olfactomedin-like …; assay: as above
Description: as §1

[3] = target: T3, recombinant human LPHN2 …; assay: solid-phase binding assay (ELISA), plate coated with LPHN2 Lec/Olf domains
Description: (§2) Solid phase binding analysis was performed by a known method (Mol Cancer Ther 14, 470-479 (2015)). LPHN2 extracellular domain variants (Lec, Olf, GAIN/GPS domain; 100 nM) were added to MaxiSorp 96-well plates (Nunc) and incubated at room temperature for 1 hour. The wells were washed twice with PBS and then incubated with 1% bovine serum albumen (BSA) for 2 hours. After blocking, various amounts (0.001, 0.005, 0.01, 0.05, 0.1, 0.5, 1, 5 or 10 μM) of wild-type LRG1 or DG-LRG1 were added to 96-well plates coated with the indicated LPHN2 extracellular domain variants. LRG1 bound to the coated protein was detected by ELISA using an anti-LRG1 antibody (Cat #sc517443, Santa Cruz) and a peroxidase-conjugated anti-mouse secondary antibody (Cat #62-6520, Thermo Fisher Scientific).
Whether or not deglycosylation of LRG1 (DG-LRG1) affects the binding affinity to LPHN2 in vitro (FIG. 7B) and ex vivo (FIGS. 7C and 8C) was determined. […] Cell surface binding rates of LRG1 and DG-LRG1 in HUVEC and HEK293T cells were evaluated and verified again (Table 3, FIGS. 7C and 8C)

[4] = target: B1; assay: solid-phase binding assay (ELISA), plate coated with LPHN2 ectodomain variants
Description: as §2

Binder | binding result [1] | binding result [2] | Kd [3] | binding result [4]
B1 | no binding (tested: 0.001 to 10 µM added) | no binding (tested: 0.001 to 10 µM added) | 920 nM | –
B2 | no binding (tested: 0.001 to 10 µM added) | no binding (tested: 0.001 to 10 µM added) | 450 nM | –
B3 | – | – | – | binds
